Laboratory results as given in paper PMC9352680, “A comprehensive thermodynamic model for RNA binding by the Saccharomyces cerevisiae Pumilio protein PUF4”.

Molecular target: T1, PUF4 RNA-binding domain (Saccharomyces cerevisiae, UniProt P25339 537-888)
T1 sequence: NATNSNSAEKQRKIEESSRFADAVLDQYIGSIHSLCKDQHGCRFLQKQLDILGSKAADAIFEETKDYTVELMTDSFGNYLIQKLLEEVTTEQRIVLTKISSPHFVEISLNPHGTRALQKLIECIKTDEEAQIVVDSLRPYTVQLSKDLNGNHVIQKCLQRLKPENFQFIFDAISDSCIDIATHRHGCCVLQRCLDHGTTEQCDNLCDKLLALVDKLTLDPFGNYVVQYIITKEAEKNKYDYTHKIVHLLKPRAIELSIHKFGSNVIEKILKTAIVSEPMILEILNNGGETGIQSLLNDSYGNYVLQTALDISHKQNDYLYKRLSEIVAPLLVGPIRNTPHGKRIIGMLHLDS
Experiment: Mg; RNA-MaP; 20 mM Na-HEPES pH 7.4, 30 mM KOAc, 0.75 mM MgCl2, 0.1% Tween-20, 5% glycerol, 0.1 mg/mL BSA, 2 mM DTT; 25 C; 0.0125-409.6 nM protein
Conditions: tags: N-His6-TEV cleaved; C-SNAP kept, Cy3B-labelled; label: tethered on chip by stalled RNA polymerase

B1: Ie_S4_P3E.2_K3.1_C3.2_[+-2TTCC]_H3.1_A3.1_F3.1_T3.2 (ssRNA)
RNA: UUUGACAACUGAUCGUUCUUUCUCUUCCUUGUAUAUAUAUUCUUUCUCGAUCAGUUGUCUUU
Kd: 1.01 nM

B2: Ie_S4_P3E.2_K3.1_C3.2_[+-1CCCT]_H3.1_A3.1_F3.1_T3.2 (ssRNA)
RNA: UUUGACAACUGAUCGUUCUUUCUCUCCCUUGUAUAUAUAUUCUUUCUCGAUCAGUUGUCUUU
Kd: 0.775 nM

B3: Ie_S4_P3E.2_K3.1_C3.2_H3.1_[+1TTCC]_A3.1_F3.1_T3.2 (ssRNA)
RNA: UUUGACAACUGAUCGUUCUUUCUCUUUUCCGUAUAUAUAUUCUUUCUCGAUCAGUUGUCUUU
Kd: 45.7 nM

B4: Ie_S4_P3E.2_K3.1_C3.2_[+-1CCTC]_H3.1_A3.1_F3.1_T3.2 (ssRNA)
RNA: UUUGACAACUGAUCGUUCUUUCUCUCCUCUGUAUAUAUAUUCUUUCUCGAUCAGUUGUCUUU
Kd: 1.06 nM

B5: Ie_S4_P3E.2_K3.1_C3.2_H3.1_[+1CCTC]_A3.1_F3.1_T3.2 (ssRNA)
RNA: UUUGACAACUGAUCGUUCUUUCUCUUCCUCGUAUAUAUAUUCUUUCUCGAUCAGUUGUCUUU
Kd: 64 nM

B6: Ie_S4_P3E.2_K3.1_C3.2_[+-2T]_H3.1_A3.1_F3.1_T3.2 (ssRNA)
RNA: UUUGACAACUGAUCGUUCUUUCUCUUUGUAUAUAUAUUCUUUCUCGAUCAGUUGUCUUU
Kd: 0.987 nM

B7: Ie_S4_P3E.2_K3.1_C3.2_[+-1C]_H3.1_A3.1_F3.1_T3.2 (ssRNA)
RNA: UUUGACAACUGAUCGUUCUUUCUCUCUGUAUAUAUAUUCUUUCUCGAUCAGUUGUCUUU
Kd: 1.07 nM

B8: Ie_S4_P3E.2_K3.1_C3.2_H3.1_[+3C]_A3.1_F3.1_T3.2 (ssRNA)
RNA: UUUGACAACUGAUCGUUCUUUCUCUUGUCAUAUAUAUUCUUUCUCGAUCAGUUGUCUUU
Kd: 6.8 nM

ACAAACUGUAUUAUUAUCCACAAAC (ssRNA) [Ie_S3_P5E.1_K5.1_C5.1_H5.1_A5.1_F5.1_[+10TCC]_T5.1]
Kd: 5.94 nM

B9: Ie_S4_P3E.2_K3.1_C3.2_[+-2CCC]_H3.1_A3.1_F3.1_T3.2 (ssRNA)
RNA: UUUGACAACUGAUCGUUCUUUCUCCCCUUGUAUAUAUAUUCUUUCUCGAUCAGUUGUCUUU
Kd: 0.858 nM

B10: Ie_S4_P3E.2_K3.1_C3.2_H3.1_[+1CTT]_A3.1_F3.1_T3.2 (ssRNA)
RNA: UUUGACAACUGAUCGUUCUUUCUCUUCUUGUAUAUAUAUUCUUUCUCGAUCAGUUGUCUUU
Kd: 0.982 nM

B11: Ie_S4_P3E.2_K3.1_C3.2_[+-1CCC]_H3.1_A3.1_F3.1_T3.2 (ssRNA)
RNA: UUUGACAACUGAUCGUUCUUUCUCUCCCUGUAUAUAUAUUCUUUCUCGAUCAGUUGUCUUU
Kd: 0.986 nM

B12: Ie_S4_P3E.2_K3.1_C3.2_[+-1CTT]_H3.1_A3.1_F3.1_T3.2 (ssRNA)
RNA: UUUGACAACUGAUCGUUCUUUCUCUCUUUGUAUAUAUAUUCUUUCUCGAUCAGUUGUCUUU
Kd: 1.24 nM

B13: Ie_S4_P3E.2_K3.1_C3.2_H3.1_[+1CCT]_A3.1_F3.1_T3.2 (ssRNA)
RNA: UUUGACAACUGAUCGUUCUUUCUCUUCCUGUAUAUAUAUUCUUUCUCGAUCAGUUGUCUUU
Kd: 1.07 nM

B14: Ie_S4_P3E.2_K3.1_C3.2_[+-1CCT]_H3.1_A3.1_F3.1_T3.2 (ssRNA)
RNA: UUUGACAACUGAUCGUUCUUUCUCUCCUUGUAUAUAUAUUCUUUCUCGAUCAGUUGUCUUU
Kd: 0.625 nM

B15: Ie_S4_P3E.2_K3.1_C3.2_H3.1_[+3CTT]_A3.1_F3.1_T3.2 (ssRNA)
RNA: UUUGACAACUGAUCGUUCUUUCUCUUGUCUUAUAUAUAUUCUUUCUCGAUCAGUUGUCUUU
Kd: 11.4 nM

B16: Ie_S4_P3E.2_K3.1_C3.2_H3.1_[+2TTT]_A3.1_F3.1_T3.2 (ssRNA)
RNA: UUUGACAACUGAUCGUUCUUUCUCUUGUUUUAUAUAUAUUCUUUCUCGAUCAGUUGUCUUU
Kd: 16.5 nM

B17: Ie_S4_P3E.2_K3.1_C3.2_H3.1_[+2CCT]_A3.1_F3.1_T3.2 (ssRNA)
RNA: UUUGACAACUGAUCGUUCUUUCUCUUGCCUUAUAUAUAUUCUUUCUCGAUCAGUUGUCUUU
Kd: 41.1 nM

B18: Ie_S4_P3E.2_K3.1_C3.2_H3.1_[+3CCC]_A3.1_F3.1_T3.2 (ssRNA)
RNA: UUUGACAACUGAUCGUUCUUUCUCUUGUCCCAUAUAUAUUCUUUCUCGAUCAGUUGUCUUU
Kd: 13.7 nM

B19: Ie_S4_P3E.2_K3.1_C3.2_[+-1TTT]_H3.1_A3.1_F3.1_T3.2 (ssRNA)
RNA: UUUGACAACUGAUCGUUCUUUCUCUUUUUGUAUAUAUAUUCUUUCUCGAUCAGUUGUCUUU
Kd: 1.03 nM

B20: Ie_S4_P3E.2_K3.1_C3.2_H3.1_[+1TCC]_A3.1_F3.1_T3.2 (ssRNA)
RNA: UUUGACAACUGAUCGUUCUUUCUCUUUCCGUAUAUAUAUUCUUUCUCGAUCAGUUGUCUUU
Kd: 25.7 nM

B21: Ie_S4_P3E.2_K3.1_C3.2_H3.1_[+2TCC]_A3.1_F3.1_T3.2 (ssRNA)
RNA: UUUGACAACUGAUCGUUCUUUCUCUUGUCCUAUAUAUAUUCUUUCUCGAUCAGUUGUCUUU
Kd: 10.8 nM

B22: Ie_S4_P3E.2_K3.1_C3.2_[+-1CT]_H3.1_A3.1_F3.1_T3.2 (ssRNA)
RNA: UUUGACAACUGAUCGUUCUUUCUCUCUUGUAUAUAUAUUCUUUCUCGAUCAGUUGUCUUU
Kd: 0.942 nM

B23: Ie_S4_P3E.2_K3.1_C3.2_H3.1_[+1TC]_A3.1_F3.1_T3.2 (ssRNA)
RNA: UUUGACAACUGAUCGUUCUUUCUCUUUCGUAUAUAUAUUCUUUCUCGAUCAGUUGUCUUU
Kd: 50.6 nM

B24: Ie_S4_P3E.2_K3.1_C3.2_H3.1_[+2CT]_A3.1_F3.1_T3.2 (ssRNA)
RNA: UUUGACAACUGAUCGUUCUUUCUCUUGCUUAUAUAUAUUCUUUCUCGAUCAGUUGUCUUU
Kd: 60.8 nM

B25: Ie_S4_P3E.2_K3.1_C3.2_[+-1TC]_H3.1_A3.1_F3.1_T3.2 (ssRNA)
RNA: UUUGACAACUGAUCGUUCUUUCUCUUCUGUAUAUAUAUUCUUUCUCGAUCAGUUGUCUUU
Kd: 0.769 nM

B26: Ie_S4_P3E.2_K3.1_C3.2_[+-1TT]_H3.1_A3.1_F3.1_T3.2 (ssRNA)
RNA: UUUGACAACUGAUCGUUCUUUCUCUUUUGUAUAUAUAUUCUUUCUCGAUCAGUUGUCUUU
Kd: 1.2 nM

B27: Ib_S2_P3E.1_K3.1_C3.1_H3.1_[T1C]_A3.1_[A6G]_F3.1_T3.1 (ssRNA)
RNA: UUUGAUUAAUAUGAUAUCGUUCUUUCUCGUAUGUAUUCUUUCUCGAUAUCAUAUUAAUCUUU
Kd: 75.7 nM

B28: Ic_S2_P3E.1_K3.1_C3.1_H3.1_A3.1_[T5A]_F3.1_T3.1 (ssRNA)
RNA: UUUGAUUAAUAUGAUAUCGUUCUUUCUUGUAAAUAUUCUUUCUCGAUAUCAUAUUAAUCUUU
Kd: 14.9 nM

B29: Ib_S2_P3E.1_K3.1_C3.1_H3.1_[T1A]_A3.1_[A6G]_F3.1_T3.1 (ssRNA)
RNA: UUUGAUUAAUAUGAUAUCGUUCUUUCUAGUAUGUAUUCUUUCUCGAUAUCAUAUUAAUCUUU
Kd: 257 nM

B30: Ib_S2_P3E.1_K3.1_C3.1_H3.1_[G2C]_A3.1_[T5C]_F3.1_T3.1 (ssRNA)
RNA: UUUGAUUAAUAUGAUAUCGUUCUUUCUUCUACAUAUUCUUUCUCGAUAUCAUAUUAAUCUUU
Kd: > 2300 nM

B31: Ie_S4_P3E.2_K3.1_C3.2_[+-2CCCTT]_H3.1_A3.1_F3.1_T3.2 (ssRNA)
RNA: UUUGACAACUGAUCGUUCUUUCUCCCCUUUUGUAUAUAUAUUCUUUCUCGAUCAGUUGUCUUU
Kd: 0.884 nM

B32: Ie_S4_P3E.2_K3.1_C3.2_[+-1CTCTC]_H3.1_A3.1_F3.1_T3.2 (ssRNA)
RNA: UUUGACAACUGAUCGUUCUUUCUCUCUCUCUGUAUAUAUAUUCUUUCUCGAUCAGUUGUCUUU
Kd: 0.676 nM

B33: Ie_S4_P3E.2_K3.1_C3.2_H3.1_[+1TTCCT]_A3.1_F3.1_T3.2 (ssRNA)
RNA: UUUGACAACUGAUCGUUCUUUCUCUUUUCCUGUAUAUAUAUUCUUUCUCGAUCAGUUGUCUUU
Kd: 1.16 nM

B34: Ie_S4_P3E.2_K3.1_C3.2_H3.1_[+1CCTCT]_A3.1_F3.1_T3.2 (ssRNA)
RNA: UUUGACAACUGAUCGUUCUUUCUCUUCCUCUGUAUAUAUAUUCUUUCUCGAUCAGUUGUCUUU
Kd: 0.898 nM

B35: Ie_S4_P3E.2_K3.1_C3.2_H3.1_[+2TCTCT]_A3.1_F3.1_T3.2 (ssRNA)
RNA: UUUGACAACUGAUCGUUCUUUCUCUUGUCUCUUAUAUAUAUUCUUUCUCGAUCAGUUGUCUUU
Kd: 23.6 nM
